According to patent US20220265821A1 (PASCAL BIOSCIENCES, published 2022):
Like-named read-outs stand apart in the source and are kept apart here.

Legend:
Experiment in all cases: flow cytometry, saturation binding of recombinant chimeric mAb to NALM-6 cells
[1] = target: T1, human lambda-5 (on the pre-BCR-expressing human pre-B cell line NALM-6) (human, UniProt P15814 38-213)
T1 construct: On NALM-6 cells lambda-5 stands in the pre-BCR together with VpreB and the mu heavy chain; also called IGLL1; lambda-5 subunit of the SLC of human pre-BCR

[2] = target: T1, human lambda-5 (on the …); remark: listed apart in the source
Protocol: (§1) Avidity of each VpreB antibody was determined by measuring saturation binding kinetics of antibody to NALM-6 cells using flow cytometry as follows. The cells were stained with a 3-fold descending titration of recombinant, chimeric VpreB antibody ranging from 133 nM to 0.002 nM. A PE/Cy5-labeled mouse anti-human IgG1 secondary antibody (Southern Biotech #9042-13) was used to detect cell-bound anti-VpreB or an IgG1 isotype control antibody (PAS-ISO6H4). The 50% effective concentration (EC₅₀) was calculated using GraphPad Prism software. Antibodies 5-4A9, 5-11D1, 5-14A8, and 5-14H5 all bound to VpreB-expressing NALM-6 cells with unusually strong binding avidity (<400 pM; FIG. 13, Table 16).
The avidity of each lambda-5 antibody was determined by measuring saturation binding kinetics of recombinant, chimeric mAb to NALM-6 cells using flow cytometry as described for the VpreB antibody saturation binding kinetics experiment. Antibodies 4-6D12, 4-5G11, 4-7A6, 4-7C1, 4-9H8, 4-12G1, 4-15E6, 4-17G9, 4-18G6, 4-19A9, and 4-20D2 all bound to VpreB- expressing NALM-6 cells with strong avidity (<30 nM; FIG. 16, Table 18).

[3] = target: T2, human VpreB (on the pre-BCR-expressing human pre-B cell line NALM-6) (human, UniProt P12018 20-145)
T2 construct: On NALM-6 cells VpreB stands in the pre-BCR together with lambda-5 and the mu heavy chain; also called VPREB1; VpreB subunit of the SLC of human pre-BCR
T2 sequence: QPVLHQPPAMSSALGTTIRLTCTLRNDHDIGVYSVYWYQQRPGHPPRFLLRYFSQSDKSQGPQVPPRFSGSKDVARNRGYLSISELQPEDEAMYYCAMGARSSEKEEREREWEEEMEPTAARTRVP

[4] = target: T2, human VpreB (on the pre-BCR-expressing …); remark: listed apart in the source
Protocol: as §1
The binding avidity of the VpreB mAbs 5-2D7 and 5-9B12 was also determined by measuring saturation binding kinetics of recombinant, chimeric mAb to NALM-6 cells using flow cytometry as described above. Both mAbs bound to VpreB-expressing NALM-6 cells with unusually strong avidity (<400 pM; FIG. 15, Table 17).

[5] = target: T2, human VpreB (on the pre-BCR-expressing …); remark: listed apart in the source
Protocol: as §1

T1 sequence (P15814 38-213 limits assumed): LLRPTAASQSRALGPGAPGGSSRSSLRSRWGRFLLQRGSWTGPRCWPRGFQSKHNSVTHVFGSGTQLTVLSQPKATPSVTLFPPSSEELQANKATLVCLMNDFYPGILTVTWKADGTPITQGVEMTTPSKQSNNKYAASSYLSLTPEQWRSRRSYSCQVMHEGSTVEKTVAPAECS

B1: lambda-5 antibody 4-19A9 (recombinant mouse-human chimeric IgG1/kappa) (antibody, V domains shown)
VH: EVQLQQSGTVLARPGASVKMSCKASGYTFTSYWMHWVKQRPGQGLEWIGAIYPGNSDTSYNQKFKGKARLTAVTSASTAYMELSSLTNEDSAVYYCTRADYDGTPFDYWGQGTTLTVSS
VL: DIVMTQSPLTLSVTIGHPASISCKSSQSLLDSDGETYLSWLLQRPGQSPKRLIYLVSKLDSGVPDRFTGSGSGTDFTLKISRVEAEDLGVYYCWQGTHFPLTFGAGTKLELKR
notes: also called mAb 4-19A9
EC50 [1]: < 30 nM
EC50 [2]: 8.1 nM

B2: lambda-5 antibody 4-7C1 (recombinant mouse-human chimeric IgG1/kappa) (antibody, V domains shown)
VH: EVQLQQSGTVLARPGASVKMSCRPSGYTFTSYWMHWVKQRPGQDLEWIGAIYPGNSDTSYNQKFKGKAKLTAVTSASTAYMELSSLTNEDSAVYYCTRADYDGTPFDYWGQGTTLTVSS
VL: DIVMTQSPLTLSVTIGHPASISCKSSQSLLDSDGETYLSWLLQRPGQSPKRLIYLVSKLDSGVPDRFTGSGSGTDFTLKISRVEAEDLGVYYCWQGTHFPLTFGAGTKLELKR
notes: also called mAb 4-7C1
EC50 [1]: < 30 nM
EC50 [2]: 8.4 nM

B3: lambda-5 antibody 4-6D12 (recombinant mouse-human chimeric IgG1/kappa) (antibody, V domains shown)
VH: EVQLQQSGTVLARPGASVKMSCKASGYTFTNYWMHWVKQRPGQGLEWIGAIYPGNSDTSYNQKFKGKAKLTAVTSASTAYMELSSLTNEDSAVYFCTRADYDGTPFDYWGQGTTLTVSS
VL: DILMTQSPLTLSVTIGHPASISCKSSQSLLDSDGETYLSWLLQRPGQSPERLIYLVSKLDSGVPDRFTGSGSGTDFTLKISRVEAEDLGVYYCWQGTHFPLTFGAGTKLELKR
notes: also called mAb 4-6D12
EC50 [1]: < 30 nM
EC50 [2]: 1.9 nM

B4: lambda-5 antibody 4-7A6 (recombinant mouse-human chimeric IgG1/kappa) (antibody, V domains shown)
VH: EVQLQQSGTVLARPGTSVKMSCKASGYTFTSYWMHWVKQRPGQGLEWIGAIYLGNTDTSYNQKFKGKAKLTAVTSASSAYMELSSLTNEDSAVYYCTRADYDGTPFDYWGQGTTLTVSS
VL: DVVMTQNALTLSVTIGHPASISCRSSQSLLDSDGETYLSWLLQRPGQSPKRLIYLVSKLDSGVPDRFTGSGSGTDFTLKISRVEAEDLGVYYCWQGTHFPLTFGAGTKLELKR
notes: also called mAb 4-7A6
EC50 [1]: < 30 nM
EC50 [2]: 2.3 nM

B5: lambda-5 antibody 4-20D2 (recombinant mouse-human chimeric IgG1/kappa) (antibody, V domains shown)
VH: EVQLQQSGTVLARPGASVKMSCKASGYSFTSYWMHWVKQRPGQGLEWIGAIYPGNSDTSYNQKFKGKAKLTAVTSASTAYMELSSLTNEDSAVYYCTRGDYDGTPFDYWGQGTTLTVSS
VL: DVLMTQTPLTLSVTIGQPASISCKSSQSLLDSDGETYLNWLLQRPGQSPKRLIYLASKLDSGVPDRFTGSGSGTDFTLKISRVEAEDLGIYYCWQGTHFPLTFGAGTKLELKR
notes: also called mAb 4-20D2
EC50 [1]: < 30 nM
EC50 [2]: 26.3 nM

B6: lambda-5 antibody 4-18G6 (recombinant mouse-human chimeric IgG1/kappa) (antibody, V domains shown)
VH: EVQLQQSGTVLARPGASVKMSCKASGYTFTNYWMHWVKQRPGQGLEWIGAVYPGNSDTSYSQKFTGKAKLTAVTSASTAYMDLSSLTNEDSAVYYCTRADYDGTPFDYWGQGTTLTVSS
VL: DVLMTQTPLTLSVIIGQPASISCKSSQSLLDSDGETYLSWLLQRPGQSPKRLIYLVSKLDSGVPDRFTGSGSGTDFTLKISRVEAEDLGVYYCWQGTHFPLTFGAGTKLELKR
notes: also called mAb 4-18G6
EC50 [1]: < 30 nM
EC50 [2]: 10.2 nM

B7: lambda-5 antibody 4-17G9 (recombinant mouse-human chimeric IgG1/kappa) (antibody, V domains shown)
VH: EVQLQQSGTVLARPGASVKMSCQASGYTFTNYWMHWVKQRPGQGLEWIGAIYPGNSDTSYNQNFKGKAELTAVTSATTAYMELSSLTDEDSAVYYCTRADYDGTPFDYWGQGTTLTVSS
VL: DIVMTQSPLTLSVTIGHPASISCKSSQSLLDSDGETYLSWLLQRPGQSPKRLIYLVSKLDSGVPDRFTGSGSGTDFTLKISRVEAEDLGVYYCWQGTHFPLTFGAGTKVELKR
notes: also called mAb 4-17G9
EC50 [1]: < 30 nM
EC50 [2]: 9 nM

B8: VpreB antibody 5-2D7 (recombinant mouse-human chimeric IgG1/kappa) (antibody, V domains shown)
VH: QVQLQQPGAELVKPGASVKLSCKASGYTFTSYWMQWVKQRPGQGLEWIGEINPSNGRINYNEKFKSKATLTVDISSSTAYMQLSSLTSEDSAVYYCARSGLLDYWGQGTTLTDSS
VL: DVLMTQTPLSLPVSLGDQASISCRSSQSLIHSNGNTYLHWSLQKPGQSPKLLIYKVSNRFSGVPDRFSGSGSGTDFTLKISSVEAEDLGVYFCSQSTYVPLTFGAGTKLELKR
notes: also called mAb 5-2D7
EC50 [3]: < 0.4 nM
EC50 [4]: 0.34 nM

B9: VpreB antibody 5-11D1 (recombinant mouse-human chimeric IgG1/kappa) (antibody, V domains shown)
VH: EVQLEESGPSLVKPSQTLSLTCSVTGDSITSDYWTWIRKFPGNKLEYMGYISYSGRTYYNPSLKSRISITRDTSRNQYYLQLSSVTTEDTATYYCARERYYYGSLDYWGQGTTLTVSS
VL: DVLMTQTPLSLPVSLGDQASISCRSSQSLVHSNGNTYLHWYLQKPGQSPKLLIYKVSNRFSGVPDRFSGSGSGTDFTLKISRVEAEDLGVYFCSQTTHVPPTFGGGTKLEIKR
notes: also called mAb 5-11D1
EC50 [3]: < 0.4 nM
EC50 [5]: 0.143 nM

B10: lambda-5 antibody 4-15E6 (recombinant mouse-human chimeric IgG1/kappa) (antibody, V domains shown)
VH: EVQLEESGAELVRSGASVKLSCTASGFNIKDYYLHWVKQRPEQGLEWIGWIDPENGNTDYAPKFQGKATMTADTSSNTAYLQLSSLTSEDTAVYYCNEGYYDYDTDSAMDYWGQGTSVTVSS
VL: DVLMTQTPLSLPVSLGDQASISCRSSQSLVHSDGITYLHWYLQKPGQSPKLLIYKVSNRFSGVPDRFSGSGSGTDFTLKISRVEAEDLGVYFCSQSTRVPWTFGGGTKLEIKR
notes: also called mAb 4-15E6
EC50 [1]: < 30 nM
EC50 [2]: 3.7 nM

B11: VpreB antibody 5-14H5 (recombinant mouse-human chimeric IgG1/kappa) (antibody, V domains shown)
VH: QVQLQQPGAELVKPGASVKLSCKASGYTFTSNWMNWVKQRPGQGLEWIGEINPSNGRINYNEKFKSKATLTVDKSSSTAYMQLSSLTSEDSAVYYCARSGLLDYWGQGTTLTVSS
VL: DVLMTQTPLSLPVSLGDQASISCRSSQSLVHSNGNTYLHWYLQKPGQSPKLLIYKVSNRFSGVPDRFSGSGSGTDFTLKISRVEAEDLGVYFCSQSTYLPLTFGAGTRLELKR
notes: also called mAb 5-14H5
EC50 [3]: < 0.4 nM
EC50 [5]: 0.115 nM

B12: VpreB antibody 5-9B12 (recombinant mouse-human chimeric IgG1/kappa) (antibody, V domains shown)
VH: EVQLEESGPSLVKPSQTLSLTCSVTGDSITSDYWTWIRKFPGNKLEYMGYISYSGRTYYNPSLKSRISITRDTSKKQYYLQLNSVTTEDTATYYCARERYYYGSLDYWGQGTTLTVSS
VL: DVVMTQTPLSLPVSLGDQASISCRSSQSLVHSNGNTYLHWYLQKPGQSPKLLIYKVSNRFSGVPDRFSGSGSGTDFTLKISRVEAEDLGVYFCSQTTHVPPTFGGGTKLEIKR
notes: also called mAb 5-9B12
EC50 [3]: < 0.4 nM
EC50 [4]: 0.12 nM

B13: lambda-5 antibody 4-12G1 (recombinant mouse-human chimeric IgG1/kappa) (antibody, V domains shown)
VH: EVQLEESGAELVRSGASVKLSCTASGFNIKDYYLHWVKQRPEQGLEWIGWIDPENGATDYAPKFQGKASMTADTSSNTAYLQLSSLTFEDTAVYYCNEGYYDYDADSAMDYWGQGTSVTVSS
VL: DVLMTQTPLSLPVSLGDQASISCRSSQSLVHSDGITYLHWYLQKPGQSPKLLIYKVSNRFSGVPDRFSGSGSGTDFTLKISRVEAEDLGVYFCSQSARVPWTFGGGTKLEIKR
notes: also called mAb 4-12G1
EC50 [1]: < 30 nM
EC50 [2]: 4.5 nM

B14: VpreB antibody 5-14A8 (recombinant mouse-human chimeric IgG1/kappa) (antibody, V domains shown)
VH: EVQLEESGPSLVKPSQTLSLTCSVTGDSITSDYWTWIRKFPGNILEYMGYISSSGRIYYNPSLKSRISITRDTSKNQYYLQLSSVTTEDTATYYCARERYYYGSLDYWGQGTTLTVSS
VL: DVLMTQTPLSLPVSLGDQASISCRSSQGLVHSNGNTYLHWYLQKPGQSPKLLIYKVSNRFSGVPDRFSGSGSGTDFTLKISRVEAEDLGVYFCSQTTHVPPTFGGGTKLEIKR
notes: also called mAb 5-14A8
EC50 [3]: < 0.4 nM
EC50 [5]: 0.227 nM

B15: VpreB antibody 5-4A9 (recombinant mouse-human chimeric IgG1/kappa) (antibody, V domains shown)
VH: EVQLQQSGAELVKPGASVQLSCKASGYTFTSYWMQWVKQRPGQGLEWIGEINPSNGRNNYNEKFKRKATLTVDTSSSTAYMQLSSLTSEDSAVYYCARSGLLDYWGQGTTLTVSS
VL: DVLMTQTPLSLPVSLGDQASISCRSSQSLVHSNGNTYLHWYLQKPGQSPKLLIYKVSNRFSGVPDRFSGSGSGTDFTLTISRVEAEDLGVYFCSQSTYVPLTFGAGTKLELKR
notes: also called mAb 5-4A9
EC50 [3]: < 0.4 nM
EC50 [5]: 0.396 nM

B16: lambda-5 antibody 4-5G11 (recombinant mouse-human chimeric IgG1/kappa) (antibody)
heavy: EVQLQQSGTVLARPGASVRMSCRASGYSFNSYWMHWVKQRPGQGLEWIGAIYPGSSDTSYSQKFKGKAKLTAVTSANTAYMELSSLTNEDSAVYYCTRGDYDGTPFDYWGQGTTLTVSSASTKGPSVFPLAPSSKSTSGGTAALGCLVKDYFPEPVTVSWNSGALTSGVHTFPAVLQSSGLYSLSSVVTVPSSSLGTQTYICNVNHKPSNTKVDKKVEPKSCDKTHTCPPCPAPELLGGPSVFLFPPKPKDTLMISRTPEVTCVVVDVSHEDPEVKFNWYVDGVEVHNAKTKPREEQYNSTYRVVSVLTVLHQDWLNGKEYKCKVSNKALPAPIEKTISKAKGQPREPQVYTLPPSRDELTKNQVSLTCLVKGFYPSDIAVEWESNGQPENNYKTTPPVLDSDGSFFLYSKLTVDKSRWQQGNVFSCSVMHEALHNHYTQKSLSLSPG
light: DILMTQSPLTLSVTIGQPASISCKSGQSLLDSDGKTYLNWLLQRPGQSPKRLIYLVSKLHSGVPDRFTGSGSGTDFTLKISRVEAEDLGVYYCWQGTHFPLTFGAGTKLELKRTVAAPSVFIFPPSDEQLKSGTASVVCLLNNFYPREAKVQWKVDNALQSGNSQESVTEQDSKDSTYSLSSTLTLSKADYEKHKVYACEVTHQGLSSPVTKSFNRGEC
notes: also called mAb 4-5G11
EC50 [1]: < 30 nM
EC50 [2]: 6.2 nM

B17: lambda-5 antibody 4-9H8 (recombinant mouse-human chimeric IgG1/kappa) (antibody)
heavy: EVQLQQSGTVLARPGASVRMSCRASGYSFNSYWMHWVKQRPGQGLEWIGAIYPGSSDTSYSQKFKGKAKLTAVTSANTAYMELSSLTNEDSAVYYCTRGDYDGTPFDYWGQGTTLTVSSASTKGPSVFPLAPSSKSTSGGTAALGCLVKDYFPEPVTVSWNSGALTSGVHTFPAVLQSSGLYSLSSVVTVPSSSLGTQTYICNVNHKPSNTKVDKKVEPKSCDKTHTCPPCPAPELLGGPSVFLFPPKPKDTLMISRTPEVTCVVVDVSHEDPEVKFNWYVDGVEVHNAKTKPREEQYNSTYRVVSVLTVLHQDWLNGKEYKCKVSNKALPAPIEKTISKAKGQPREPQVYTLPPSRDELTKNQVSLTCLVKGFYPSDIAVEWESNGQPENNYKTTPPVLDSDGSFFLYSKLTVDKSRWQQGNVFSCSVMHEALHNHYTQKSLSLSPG
light: DIVMTQSPLTLSVTIGQPASISCKSGQSLLDSDGKTYLNWLLQRPGQSPKRLIYLVSKLHSGVPDRFTGSGSGTDFTLKISRVEAEDLGVYYCWQGTHFPLTFGAGTKLELKRTVAAPSVFIFPPSDEQLKSGTASVVCLLNNFYPREAKVQWKVDNALQSGNSQESVTEQDSKDSTYSLSSTLTLSKADYEKHKVYACEVTHQGLSSPVTKSFNRGEC
notes: also called mAb 4-9H8
EC50 [1]: < 30 nM
EC50 [2]: 7.4 nM
